Data from patent US7022488.

What was measured:
Gs = experiment: cell-based or functional assay
Gi proteins = experiment: cell-based or functional assay

| Substance | increase in cAMP levels after pertussis toxin treatment (Gs) [%] | increase of the isoproterenol cAMP response after pertussis toxin treatment (Gi proteins) [fold] |
| --- | --- | --- |
| human umami taste receptor hT1R1/hT1R3 (from UniProt Q7RTX1 21-841; Q7RTX0 21-852) | 25 | – |
| β-adrenergic receptor (β2AR) (from UniProt P07550 1-413) | – | > 17 |
